Reference: patent publication US20250002610A1 (Genmab, published 2025)

T1: rat FAPα on Expi293F cells (rat (Rattus norvegicus), UniProt P97321 1-761 (mouse entry))
T1 chain: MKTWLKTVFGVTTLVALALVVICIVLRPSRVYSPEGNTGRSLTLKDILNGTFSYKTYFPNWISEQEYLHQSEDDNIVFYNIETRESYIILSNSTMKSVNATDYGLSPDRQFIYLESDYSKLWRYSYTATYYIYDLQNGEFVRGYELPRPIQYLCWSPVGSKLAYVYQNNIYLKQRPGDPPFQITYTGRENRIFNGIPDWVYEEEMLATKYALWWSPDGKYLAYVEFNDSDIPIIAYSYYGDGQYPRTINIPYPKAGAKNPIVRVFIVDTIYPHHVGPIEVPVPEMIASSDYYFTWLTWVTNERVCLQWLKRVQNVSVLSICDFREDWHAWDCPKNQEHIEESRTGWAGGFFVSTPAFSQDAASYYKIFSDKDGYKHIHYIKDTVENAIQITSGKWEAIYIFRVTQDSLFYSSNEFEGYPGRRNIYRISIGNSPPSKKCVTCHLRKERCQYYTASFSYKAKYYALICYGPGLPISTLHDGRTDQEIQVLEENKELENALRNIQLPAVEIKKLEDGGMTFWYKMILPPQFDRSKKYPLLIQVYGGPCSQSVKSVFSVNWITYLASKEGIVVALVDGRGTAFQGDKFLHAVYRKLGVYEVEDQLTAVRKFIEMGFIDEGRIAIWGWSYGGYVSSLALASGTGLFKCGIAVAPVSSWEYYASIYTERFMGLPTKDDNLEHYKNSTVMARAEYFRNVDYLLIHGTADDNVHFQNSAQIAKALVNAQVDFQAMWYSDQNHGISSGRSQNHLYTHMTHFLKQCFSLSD

T2: FcγRIIa-R131 (CD32A Protein, Human, Recombinant (167 Arg, His & AVI Tag), Biotinylated) (human, UniProt P12318 34-218, limits assumed, biotinylated)
T2 construct: Bought reagent; not shown: His & AVI tag
T2 sequence (looked up): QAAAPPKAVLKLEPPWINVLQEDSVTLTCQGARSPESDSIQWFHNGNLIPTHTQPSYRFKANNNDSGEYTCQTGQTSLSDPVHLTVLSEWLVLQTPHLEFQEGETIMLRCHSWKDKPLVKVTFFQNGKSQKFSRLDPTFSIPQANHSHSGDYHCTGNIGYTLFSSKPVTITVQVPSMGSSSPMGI

B1: IgG1-FAPα-FERL (antibody)
heavy: EVQLLESGGGLVQPGGSPRLSCEASGFTFSSYALSWVRQAPGKGLEWVSAISGSGGGRYYADSVKGRFTISRDNSKNTLFLQMNSLRAEDTAVYYCAKEGYSSSGTYWDHWGQGTLVTVSSASTKGPSVFPLAPSSKSTSGGTAALGCLVKDYFPEPVTVSWNSGALTSGVHTFPAVLQSSGLYSLSSVVTVPSSSLGTQTYICNVNHKPSNTKVDKRVEPKSCDKTHTCPPCPAPEFERGPSVFLFPPKPKDTLMISRTPEVTCVVVDVSHEDPEVKFNWYVDGVEVHNAKTKPREEQYNSTYRVVSVLTVLHQDWLNGKEYKCKVSNKALPAPIEKTISKAKGQPREPQVYTLPPSREEMTKNQVSLTCLVKGFYPSDIAVEWESNGQPENNYKTTPPVLDSDGSFLLYSKLTVDKSRWQQGNVFSCSVMHEALHNHYTQKSLSLSPG
light: AIQMTQSPSSVSASVGDRVTITCRASQGVSSWLAWYQQKPGRAPKLLIYVASTLQSGVPSRFSGSGSGTDFTLTINSLQPEDFATYYCQQANSFPPTFGQGTRLEMKRTVAAPSVFIFPPSDEQLKSGTASVVCLLNNFYPREAKVQWKVDNALQSGNSQESVTEQDSKDSTYSLSSTLTLSKADYEKHKVYACEVTHQGLSSPVTKSFNRGEC
notes: Bivalent monoclonal IgG1 kappa
B2: IgG1-b12 (antibody)
heavy: not shown
light: EIVLTQSPGTLSLSPGERATFSCRSSHSIRSRRVAWYQHKPGQAPRLVIHGVSNRASGISDRFSGSGSGTDFTLTITRVEPEDFALYYCQVYGASSYTFGQGTKLERKRTVAAPSVFIFPPSDEQLKSGTASVVCLLNNFYPREAKVQWKVDNALQSGNSQESVTEQDSKDSTYSLSSTLTLSKADYEKHKVYACEVTHQGLSSPVTKSFNRGEC
notes: HIV gp120 antibody b12 with wild-type IgG1 Fc; also called IgG-b12

Experiments:
[1] = target: T1, rat FAPα on Expi293F cells; assay: flow cytometry on Expi293F cells transiently expressing rat FAPα, gMFI PE
Procedure: Binding of BisG1-FAPα-FERL/DR4-FERR, BisG1-FAPα-FEAL/b12-FEAR and IgG1-FAPα-FERL to FAPα of species commonly used for nonclinical toxicology studies was assessed by flow cytometry using Expi293F cells transiently expressing FAPα from different animal species. IgG1-b12 was included as negative control.
Expi293F cells expressing recombinant FAPα from various species (human, cynomolgus monkey, dog, pig, rat or mouse) were seeded (20,000 cells/well) in 96-Well round bottom plates (Greiner Bio-one, Cat #650101). Antibody dilutions were prepared using FACS buffer, consisting of PBS (Capricorn Scientific, Cat #PBS-10XA, diluted to 1×PBS in distilled water)+1% BSA (Roche, Cat #10735086001)+0.02% Sodium Azide (Bio-World, Cat #41920044-3). Plates were centrifuged, supernatant was removed, and cells were resuspended in 100 μL of antibody dilutions (concentration range 30-0.00017 μg/mL with three-fold serial dilutions using FACS buffer) of BisG1-FAPα-FERL/DR4-FERR, BisG1-FAPα-FEAL/b12-FEAR, IgG1-FAPα-FERL and IgG1-b12 and incubated for 30 min at 4° C. […] Antibody binding to viable cells (gMFI of PE on TO-PRO-3 negative cells) was analyzed by flow cytometry on a FACS Celesta and FACS_Diva software (first two experiments) or iQue® 3 and FlowJo software (last experiment). gMFI was determined and visualized using GraphPad Prism. Binding curves were analyzed using nonlinear regression analysis. […]

[2] = target: T3, FcγRIa (CD64 Protein, Human, Recombinant (ECD, His Tag)) (human, UniProt P12314 16-292); assay: SPR (Biacore 8K), His-tagged FcγRIa captured on an anti-His chip, antibody as analyte, endpoint response against concentration
T3 construct: extracellular domain; Bought reagent; not shown: His tag
T3 sequence (P12314 16-292): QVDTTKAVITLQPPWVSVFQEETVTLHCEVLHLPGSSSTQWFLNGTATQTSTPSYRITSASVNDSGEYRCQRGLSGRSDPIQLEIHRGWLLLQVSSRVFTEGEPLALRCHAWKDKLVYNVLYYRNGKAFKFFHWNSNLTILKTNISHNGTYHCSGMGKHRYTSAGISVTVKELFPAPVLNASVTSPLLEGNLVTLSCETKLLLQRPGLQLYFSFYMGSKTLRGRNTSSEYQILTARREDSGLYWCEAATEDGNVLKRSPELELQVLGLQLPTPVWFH
Procedure: (§1) Binding of BisG1-FAPα-FERL/DR4-FERR to immobilized human His-tagged FcγRs and FcRn was analyzed by SPR using a Biacore 8K SPR system (Cytiva). To this end, anti-His antibodies were covalently immobilized on the surface of Biacore Series S Sensor Chip CM5 (Cytiva, Cat. #29104988) using the Amine Coupling Kit (Cytiva, Cat. #BR100050) and a His Capture Kit (Cytiva, Cat. #29234602) according to the manufacturer's instructions. To assess antibody binding to immobilized human FcγRs, aliquots of the recombinant His-tagged FcγR proteins (Table 24) were diluted in HBS EP+Buffer pH 7.4 (Cytiva, Cat. #BR100669) and used to capture the FcγR proteins on the surface of the anti-His antibody-coated sensors using a flow rate of 10 μL/min and a contact time of 60 s. Captured levels ranged from 434 to 592 RU. After three start-up cycles of HBS-EP+Buffer, concentration ranges of BisG1-FAPα-FERL/DR4-FERR or IgG1-b12 antibodies (Table 25) were injected to generate binding curves on FcγR-captured sensors (active surface). For each antibody sample, a parallel flow cell without captured FcγRs was included (reference surface), which was used for RU background correction.
(§2) All sensorgrams were subtracted by the signal of the third start-up cycle with buffer only (mock analyte). […]

[3] = target: T2, FcγRIIa-R131 (CD32A Protein, Human, …); assay: SPR (Biacore 8K), His-tagged FcγRIIa-R131 captured on an anti-His chip, antibody as analyte, endpoint response against concentration
Procedure: as §1, §2

Row | Binder | EC50 (read off the curve) [1] | binding result [2] | binding result [3]
1 | B1 | ~0.2 mg/L |  | 
2 | B2 |  | binds | binds
